Reference: article PMC1373645, “Lactate production yield from engineered yeasts is dependent from the host background, the lactate dehydrogenase source and the lactate export” (Microbial Cell Factories, 2006)

Substrate: CC(=O)C(=O)O
Test: cells, lysate or membranes
Assay type: biochemical, Lactiplantibacillus plantarum
Conditions: NADH, acetate buffer pH 5.6, 25 °C, no fructose 1,6-diphosphate, Table 2 prints 1,50

B1: L. plantarum LDH (LpLDH, plLDH) (Lactiplantibacillus plantarum WCFS1; D94G) (protein)
chain: MSSMPNHQKVVLVGDGAVGSSYAFAMAQQGIAEEFVIVDVVKDRTKGDALDLEDAQAFTAPKKIYSGEYSDCKDADLVVITAGAPQKPGESRLGLVNKNLNILSSIVKPVVDSGFDGIFLVAANPVDILTYATWKFSGFPKDRVIGSGTSLDSSRLRVALGKQFNVDPRSVDAYIMGEHGDSEFAAYSTATIGTRPVRDVAKEQGVSDEDLAKLEDGVRNKAYDIINLKGATFYGIGTALMRISKAILRDENAVLPVGAYMDGQYGLNDIYIGTPAVIGGTGLKQIIESPLSADELKKMQDSAATLKKVLNDGLAELENK
notes: full length, TTG start changed to ATG, untagged, expressed in S. cerevisiae GRF18U; crude cell extract; homotetramer
Work on B1 yielded a Km of 1010 µM.
